Measurements published in publication PMC7822942.
Each block holds one substance with its values, some of them ahead of it.

What was measured:
Test in all cases: thermodynamic integration MD simulation (TIMD; computed, not an experimental measurement)
[1] = molecular target: rat gephyrin E-domain (amino acids 318-736) D664N (other chain of the homodimer); settings: E-domain dimer; value per mutation point; read off a plot
[2] = molecular target: rat gephyrin E-domain (amino acids 318-736) G375D (other chain of the homodimer); settings: E-domain dimer; value per mutation point; read off a plot
[3] = molecular target: rat gephyrin E-domain (amino acids 318-736) G545A (other chain of the homodimer); settings: E-domain dimer; value per mutation point; read off a plot
[4] = molecular target: rat gephyrin E-domain (amino acids 318-736) G545S (other chain of the homodimer); settings: E-domain dimer; value per mutation point; read off a plot
[5] = molecular target: rat gephyrin G-domain (amino acids 1-188) A91T (other chains of the homotrimer); settings: G-domain trimer; value per mutation point; read off a plot
[6] = molecular target: rat gephyrin G-domain (amino acids 1-188) V43L (other chains of the homotrimer); settings: G-domain trimer; value per mutation point; read off a plot

Substance: rat gephyrin E-domain WT (amino acids 318-736) D664N
ddG [1]: -0.7 kcal/mol

Substance: rat gephyrin E-domain WT (amino acids 318-736) G545A
ddG [3]: 0.3 kcal/mol

Substance: rat gephyrin G-domain WT (amino acids 1-188) A91T
ddG [5]: 1.7 kcal/mol

Second part, the substance after the results:

ddG [2]: 5.7 kcal/mol
Substance: rat gephyrin E-domain WT (amino acids 318-736) G375D

ddG [4]: 0.2 kcal/mol
Substance: rat gephyrin E-domain WT (amino acids 318-736) G545S

ddG [6]: -0.95 kcal/mol
Substance: rat gephyrin G-domain WT (amino acids 1-188) V43L
